How the values were obtained:
[1] = molecular target: human IL-12 receptor complex (human, UniProt P42701 24-662; Q99665 24-862); experiment: cell-based or functional assay
human CD4 on cells = molecular target: T1, human CD4 on cells (human, UniProt P01730 26-458); experiment: FACS on CD4+ T cells
T1 construct: whole, on cells; also called CD4+ T cells; HEK-CD4-IFN-γ cells

Sequence of human IL-12 receptor complex (Q99665 24-862, chain 2 of 2, other chains not shown): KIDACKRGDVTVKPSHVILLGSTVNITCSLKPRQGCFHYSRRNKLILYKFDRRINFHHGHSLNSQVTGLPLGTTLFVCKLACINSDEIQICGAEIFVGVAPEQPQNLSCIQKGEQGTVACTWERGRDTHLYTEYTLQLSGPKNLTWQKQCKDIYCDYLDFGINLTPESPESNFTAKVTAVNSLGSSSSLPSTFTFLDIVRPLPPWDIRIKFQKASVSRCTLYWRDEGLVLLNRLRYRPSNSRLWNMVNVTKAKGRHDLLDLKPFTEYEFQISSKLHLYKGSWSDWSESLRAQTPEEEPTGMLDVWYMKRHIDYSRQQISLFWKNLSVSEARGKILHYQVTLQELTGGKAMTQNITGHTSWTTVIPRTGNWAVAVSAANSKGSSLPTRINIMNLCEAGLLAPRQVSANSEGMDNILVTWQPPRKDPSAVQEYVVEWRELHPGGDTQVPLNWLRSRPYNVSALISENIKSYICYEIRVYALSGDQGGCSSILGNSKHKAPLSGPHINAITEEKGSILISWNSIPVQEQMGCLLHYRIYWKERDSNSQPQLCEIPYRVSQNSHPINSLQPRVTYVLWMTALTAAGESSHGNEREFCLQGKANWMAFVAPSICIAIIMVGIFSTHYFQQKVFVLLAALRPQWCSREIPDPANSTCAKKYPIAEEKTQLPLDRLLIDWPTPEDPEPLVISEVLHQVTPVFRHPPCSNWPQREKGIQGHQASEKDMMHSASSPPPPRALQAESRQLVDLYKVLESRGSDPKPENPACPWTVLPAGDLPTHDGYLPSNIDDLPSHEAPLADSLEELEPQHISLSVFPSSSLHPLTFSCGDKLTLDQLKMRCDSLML

Row | IFN-γ release, % of rIL-12, activated CD4+ T cells [1] [%] | binding result (human CD4 on cells) | Binder
1 | 21 | no binding | Fab-IL-12(WT)-Fc-CD8 Ab (other) heavy 1: EVQLQQSGPELVKPGASVKMSCKASGYTFTDYYMKWVKQSHGKSLEWIGHINPNNDDTFYTQKFKGRATLTVDKSSSTAYMQLNSLTSEDSAVYYCVRDDYDGGWFAYWGQGTLVTVSSASTKGPSVFPLAPSSKSTSGGTAALGCLVKDYFPEPVTVSWNSGALTSGVHTFPAVLQSSGLYSLSSVVTVPSSSLGTQTYICNVNHKPSNTKVDKKVEPKSCDKPGSGIWELKKDVYVVELDWYPDAPGEMVVLTCDTPEEDGITWTLDQSSEVLGSGKTLTIQVKEFGDAGQYTCHKGGEVLSHSLLLLHKKEDGIWSTDILKDQKEPKNKTFLRCEAKNYSGRFTCWWLTTISTDLTFSVKSSRGSSDPQGVTCGAATLSAERVRGDNKEYEYSVECQEDSACPAAEESLPIEVMVDAVHKLKYENYTSSFFIRDIIKPDPPKNLQLKPLKNSRQVEVSWEYPDTWSTPHSYFSLTFCVQVQGKSKREKKDRVFTDKTSATVICRKNASISVRAQDRYYSSSWSEWASVPCSGGGGSGGGGSGGGGSGGGGSGRNLPVATPDPGMFPCLHHSQNLLRAVSNMLQKARQTLEFYPCTSEEIDHEDITKDKTSTVEACLPLELTKNESCLNSRETSFITNGSCLASRKTSFMMALCLSSIYEDLKMYQVEFKTMNAKLLMDPKRQIFLDQNMLAVIDELMQALNFNSETVPQKSSLEEPDFYKTKIKLCILLHAFRIRAVTIDRVMSYLNASDKTHTCPPCPAPEDEGGPSVFLFPPKPKDTLMISRTPEVTCVVVDVSHEDPEVKFNWYVDGVEVHNAKTKPREEQYNSTYRVVSVLTVLHQDWLNGKEYKCKVSNKALPAPIEKTISKAKGQPREPQVYVYPPSREEMTKNQVSLTCLVKGFYPSDIAVEWESNGQPENNYKTTPPVLDEDGSFALVSKLTVDKSRWQQGNVFSCSVMHEALHNHYTQKSLSLSPGK heavy 2: EVQLQQSGPELVKPGASVKMSCKASGYTFTDYYMKWVKQSHGKSLEWIGHINPNNDDTFYTQKFKGRATLTVDKSSSTAYMQLNSLTSEDSAVYYCVRDDYDGGWFAYWGQGTLVTVSSASTKGPSVFPLAPSSKSTSGGTAALGCLVKDYFPEPVTVSWNSGALTSGVHTFPAVLQSSGLYSLSSVVTVPSSSLGTQTYICNVNHKPSNTKVDKKVEPKSCDKTHTCPPCPAPEKKGGPSVFLFPPKPKDTLMISRTPEVTCVVVDVSHEDPEVKFNWYVDGVEVHNAKTKPREEQYNSTYRVVSVLTVLHQDWLNGKEYKCKVSNKALPAPIEKTISKAKGQPREPQVYVLPPSREEMTKNQVSLLCLVKGFYPSDIAVEWESNGQPENRYMTWPPVLDSDGSFFLYSKLTVDKSRWQQGNVFSCSVMHEALHNHYTQKSLSLSPGK light: DIQMTQTTSSLSASLGDRVTISCRASQDINNYLNWYQQKSDGTIKLLIYYTSRSYSGVPSRFSGSGSGTDYSLTISNRRQEDIATYFCQQGKTLPWTFGGGTKLEIKRTVAAPSVFIFPPSDEQLKSGTASVVCLLNNFYPREAKVQWKVDNALQSGNSQESVTEQDSKDSTYSLSSTLTLSKADYEKHKVYACEVTHQGLSSPVTKSFNRGEC
2 | 0 | no binding | Fab-IL-12(E59A/F60A)-Fc-CD8 Ab (other) heavy 1: EVQLQQSGPELVKPGASVKMSCKASGYTFTDYYMKWVKQSHGKSLEWIGHINPNNDDTFYTQKFKGRATLTVDKSSSTAYMQLNSLTSEDSAVYYCVRDDYDGGWFAYWGQGTLVTVSSASTKGPSVFPLAPSSKSTSGGTAALGCLVKDYFPEPVTVSWNSGALTSGVHTFPAVLQSSGLYSLSSVVTVPSSSLGTQTYICNVNHKPSNTKVDKKVEPKSCDKPGSGIWELKKDVYVVELDWYPDAPGEMVVLTCDTPEEDGITWTLDQSSEVLGSGKTLTIQVKAAGDAGQYTCHKGGEVLSHSLLLLHKKEDGIWSTDILKDQKEPKNKTFLRCEAKNYSGRFTCWWLTTISTDLTFSVKSSRGSSDPQGVTCGAATLSAERVRGDNKEYEYSVECQEDSACPAAEESLPIEVMVDAVHKLKYENYTSSFFIRDIIKPDPPKNLQLKPLKNSRQVEVSWEYPDTWSTPHSYFSLTFCVQVQGKSKREKKDRVFTDKTSATVICRKNASISVRAQDRYYSSSWSEWASVPCSGGGGSGGGGSGGGGSGGGGSGRNLPVATPDPGMFPCLHHSQNLLRAVSNMLQKARQTLEFYPCTSEEIDHEDITKDKTSTVEACLPLELTKNESCLNSRETSFITNGSCLASRKTSFMMALCLSSIYEDLKMYQVEFKTMNAKLLMDPKRQIFLDQNMLAVIDELMQALNFNSETVPQKSSLEEPDFYKTKIKLCILLHAFRIRAVTIDRVMSYLNASDKTHTCPPCPAPEDEGGPSVFLFPPKPKDTLMISRTPEVTCVVVDVSHEDPEVKFNWYVDGVEVHNAKTKPREEQYNSTYRVVSVLTVLHQDWLNGKEYKCKVSNKALPAPIEKTISKAKGQPREPQVYVYPPSREEMTKNQVSLTCLVKGFYPSDIAVEWESNGQPENNYKTTPPVLDEDGSFALVSKLTVDKSRWQQGNVFSCSVMHEALHNHYTQKSLSLSPGK heavy 2: EVQLQQSGPELVKPGASVKMSCKASGYTFTDYYMKWVKQSHGKSLEWIGHINPNNDDTFYTQKFKGRATLTVDKSSSTAYMQLNSLTSEDSAVYYCVRDDYDGGWFAYWGQGTLVTVSSASTKGPSVFPLAPSSKSTSGGTAALGCLVKDYFPEPVTVSWNSGALTSGVHTFPAVLQSSGLYSLSSVVTVPSSSLGTQTYICNVNHKPSNTKVDKKVEPKSCDKTHTCPPCPAPEKKGGPSVFLFPPKPKDTLMISRTPEVTCVVVDVSHEDPEVKFNWYVDGVEVHNAKTKPREEQYNSTYRVVSVLTVLHQDWLNGKEYKCKVSNKALPAPIEKTISKAKGQPREPQVYVLPPSREEMTKNQVSLLCLVKGFYPSDIAVEWESNGQPENRYMTWPPVLDSDGSFFLYSKLTVDKSRWQQGNVFSCSVMHEALHNHYTQKSLSLSPGK light: DIQMTQTTSSLSASLGDRVTISCRASQDINNYLNWYQQKSDGTIKLLIYYTSRSYSGVPSRFSGSGSGTDYSLTISNRRQEDIATYFCQQGKTLPWTFGGGTKLEIKRTVAAPSVFIFPPSDEQLKSGTASVVCLLNNFYPREAKVQWKVDNALQSGNSQESVTEQDSKDSTYSLSSTLTLSKADYEKHKVYACEVTHQGLSSPVTKSFNRGEC
3 | 2.1 | no binding | Fab-IL-12(E59A)-Fc-CD8 Ab (other) heavy 1: EVQLQQSGPELVKPGASVKMSCKASGYTFTDYYMKWVKQSHGKSLEWIGHINPNNDDTFYTQKFKGRATLTVDKSSSTAYMQLNSLTSEDSAVYYCVRDDYDGGWFAYWGQGTLVTVSSASTKGPSVFPLAPSSKSTSGGTAALGCLVKDYFPEPVTVSWNSGALTSGVHTFPAVLQSSGLYSLSSVVTVPSSSLGTQTYICNVNHKPSNTKVDKKVEPKSCDKPGSGIWELKKDVYVVELDWYPDAPGEMVVLTCDTPEEDGITWTLDQSSEVLGSGKTLTIQVKAFGDAGQYTCHKGGEVLSHSLLLLHKKEDGIWSTDILKDQKEPKNKTFLRCEAKNYSGRFTCWWLTTISTDLTFSVKSSRGSSDPQGVTCGAATLSAERVRGDNKEYEYSVECQEDSACPAAEESLPIEVMVDAVHKLKYENYTSSFFIRDIIKPDPPKNLQLKPLKNSRQVEVSWEYPDTWSTPHSYFSLTFCVQVQGKSKREKKDRVFTDKTSATVICRKNASISVRAQDRYYSSSWSEWASVPCSGGGGSGGGGSGGGGSGGGGSGRNLPVATPDPGMFPCLHHSQNLLRAVSNMLQKARQTLEFYPCTSEEIDHEDITKDKTSTVEACLPLELTKNESCLNSRETSFITNGSCLASRKTSFMMALCLSSIYEDLKMYQVEFKTMNAKLLMDPKRQIFLDQNMLAVIDELMQALNFNSETVPQKSSLEEPDFYKTKIKLCILLHAFRIRAVTIDRVMSYLNASDKTHTCPPCPAPEDEGGPSVFLFPPKPKDTLMISRTPEVTCVVVDVSHEDPEVKFNWYVDGVEVHNAKTKPREEQYNSTYRVVSVLTVLHQDWLNGKEYKCKVSNKALPAPIEKTISKAKGQPREPQVYVYPPSREEMTKNQVSLTCLVKGFYPSDIAVEWESNGQPENNYKTTPPVLDEDGSFALVSKLTVDKSRWQQGNVFSCSVMHEALHNHYTQKSLSLSPGK heavy 2: EVQLQQSGPELVKPGASVKMSCKASGYTFTDYYMKWVKQSHGKSLEWIGHINPNNDDTFYTQKFKGRATLTVDKSSSTAYMQLNSLTSEDSAVYYCVRDDYDGGWFAYWGQGTLVTVSSASTKGPSVFPLAPSSKSTSGGTAALGCLVKDYFPEPVTVSWNSGALTSGVHTFPAVLQSSGLYSLSSVVTVPSSSLGTQTYICNVNHKPSNTKVDKKVEPKSCDKTHTCPPCPAPEKKGGPSVFLFPPKPKDTLMISRTPEVTCVVVDVSHEDPEVKFNWYVDGVEVHNAKTKPREEQYNSTYRVVSVLTVLHQDWLNGKEYKCKVSNKALPAPIEKTISKAKGQPREPQVYVLPPSREEMTKNQVSLLCLVKGFYPSDIAVEWESNGQPENRYMTWPPVLDSDGSFFLYSKLTVDKSRWQQGNVFSCSVMHEALHNHYTQKSLSLSPGK light: DIQMTQTTSSLSASLGDRVTISCRASQDINNYLNWYQQKSDGTIKLLIYYTSRSYSGVPSRFSGSGSGTDYSLTISNRRQEDIATYFCQQGKTLPWTFGGGTKLEIKRTVAAPSVFIFPPSDEQLKSGTASVVCLLNNFYPREAKVQWKVDNALQSGNSQESVTEQDSKDSTYSLSSTLTLSKADYEKHKVYACEVTHQGLSSPVTKSFNRGEC

Reference: patent publication US20230167164A1 (IMMUNOWAKE, published 2023)
